Results published in patent publication US20250177373A1.

What was measured:
[1] = target: gp41-inter (HIV-1; HIV-1 clade A isolate 92UG037.8); assay: fluorescence anisotropy/polarization, FITC-labeled 2F5 Fab held at 50 nM, gp41-inter titrated; the concentration read is that of gp41-inter
[2] = target: gp41-inter (HIV-1; HIV-1 clade A isolate 92UG037.8); assay: fluorescence anisotropy/polarization, FITC-labeled 4E10 Fab, gp41-inter titrated; the concentration read is that of gp41-inter
[3] = target: gp41-inter (HIV-1; HIV-1 clade A isolate 92UG037.8); assay: fluorescence anisotropy/polarization; FITC-4E10 Fab, gp41-inter titrated

Row | Substance | EC50 (read off the curve) [1] [nM] | EC50 (read off the curve) [2] [nM] | Kd [3] [nM]
1 | 2F5 Fab | 10 |  | 
2 | 4E10 Fab |  | 20 | 23
